We go through 2 molecules from paper PMC4604347, “Local regulation of the Srs2 helicase by the SUMO-like domain protein Esc2 promotes recombination at sites of stalled replication”.

One series has as its target T1, Esc2 200-456 (Saccharomyces cerevisiae, UniProt Q06340 200-456).
T1 sequence: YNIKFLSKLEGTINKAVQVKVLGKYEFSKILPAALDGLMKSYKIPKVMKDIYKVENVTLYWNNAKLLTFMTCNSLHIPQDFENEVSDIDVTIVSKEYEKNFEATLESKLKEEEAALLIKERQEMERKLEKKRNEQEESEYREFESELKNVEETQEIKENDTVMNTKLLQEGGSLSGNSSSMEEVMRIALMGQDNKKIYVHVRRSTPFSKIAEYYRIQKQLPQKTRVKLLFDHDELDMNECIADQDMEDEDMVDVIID
The series is described as follows: EMSA; up to 1000 nM protein; EMSA, 7 nM fluorescein-labeled DNA, 10 min at 37 C; buffer, salt and pH not given in the material. To be noted: protein: recombinant; tags: expressed as GST fusion; tag status in assay not explicit; label: 5'-fluorescein on strand 1; fork 1:3 1:4 2:4; three duplex arms. In general terms: Mobility shift assays separate free from complexed probe on a gel.

The target of a further series is T2, Esc2 FF173,174AA (Saccharomyces cerevisiae, UniProt Q06340 1-456, F173A;F174A).
T2 sequence: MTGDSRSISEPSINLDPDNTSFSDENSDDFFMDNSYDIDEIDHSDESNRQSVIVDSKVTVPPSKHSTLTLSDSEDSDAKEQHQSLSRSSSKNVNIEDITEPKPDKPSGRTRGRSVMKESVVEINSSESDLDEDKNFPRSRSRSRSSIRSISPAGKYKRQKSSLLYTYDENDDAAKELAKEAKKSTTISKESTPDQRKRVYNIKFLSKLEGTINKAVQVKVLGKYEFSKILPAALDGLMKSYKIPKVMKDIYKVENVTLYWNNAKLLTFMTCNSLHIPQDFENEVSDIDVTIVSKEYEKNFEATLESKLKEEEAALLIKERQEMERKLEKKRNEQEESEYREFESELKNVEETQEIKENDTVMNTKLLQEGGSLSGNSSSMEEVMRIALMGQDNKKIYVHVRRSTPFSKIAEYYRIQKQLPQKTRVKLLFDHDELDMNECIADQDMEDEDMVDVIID
The series is described as follows: EMSA; still proficient, degree only in figure; EMSA, 7 nM fluorescein-labeled DNA, 10 min at 37 C; buffer, salt and pH not given in the material. To be noted: protein: recombinant; tags: expressed as GST fusion; tag status in assay not explicit; label: 5'-fluorescein on strand 1; fork 1:3 1:4 2:4; three duplex arms.

For a further series, the target named is T3, Esc2 1-151 (Saccharomyces cerevisiae, UniProt Q06340 1-151).
T3 sequence: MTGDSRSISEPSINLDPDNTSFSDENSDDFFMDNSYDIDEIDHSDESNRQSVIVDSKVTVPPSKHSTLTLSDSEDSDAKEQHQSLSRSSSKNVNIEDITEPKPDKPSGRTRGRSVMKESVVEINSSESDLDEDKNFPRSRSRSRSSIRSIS
The series is described as follows: EMSA; binding completely lost; up to 1000 nM protein; EMSA, 7 nM fluorescein-labeled DNA, 10 min at 37 C; buffer, salt and pH not given in the material. To be noted: protein: recombinant; tags: expressed as GST fusion; tag status in assay not explicit; label: 5'-fluorescein on strand 1; fork 1:3 1:4 2:4; three duplex arms.

A further series addresses T4, Esc2 1-199 (Saccharomyces cerevisiae, UniProt Q06340 1-199).
T4 sequence: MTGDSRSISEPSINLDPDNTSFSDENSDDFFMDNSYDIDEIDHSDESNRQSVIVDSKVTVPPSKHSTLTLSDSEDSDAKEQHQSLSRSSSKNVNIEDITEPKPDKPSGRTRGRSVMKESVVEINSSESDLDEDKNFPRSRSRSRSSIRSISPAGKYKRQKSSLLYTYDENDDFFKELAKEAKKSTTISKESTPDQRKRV
The series is described as follows: EMSA; highly proficient; 7 nM DNA, 0-1000 nM protein; EMSA, 7 nM fluorescein-labeled DNA, 10 min at 37 C; buffer, salt and pH not given in the material. To be noted: protein: recombinant; tags: expressed as GST fusion; tag status in assay not explicit; label: 5'-fluorescein on strand 1; fork 1:3 1:4 2:4; three duplex arms.

The next series deals with T5, Esc2 (Saccharomyces cerevisiae, UniProt Q06340 1-456).
T5 sequence: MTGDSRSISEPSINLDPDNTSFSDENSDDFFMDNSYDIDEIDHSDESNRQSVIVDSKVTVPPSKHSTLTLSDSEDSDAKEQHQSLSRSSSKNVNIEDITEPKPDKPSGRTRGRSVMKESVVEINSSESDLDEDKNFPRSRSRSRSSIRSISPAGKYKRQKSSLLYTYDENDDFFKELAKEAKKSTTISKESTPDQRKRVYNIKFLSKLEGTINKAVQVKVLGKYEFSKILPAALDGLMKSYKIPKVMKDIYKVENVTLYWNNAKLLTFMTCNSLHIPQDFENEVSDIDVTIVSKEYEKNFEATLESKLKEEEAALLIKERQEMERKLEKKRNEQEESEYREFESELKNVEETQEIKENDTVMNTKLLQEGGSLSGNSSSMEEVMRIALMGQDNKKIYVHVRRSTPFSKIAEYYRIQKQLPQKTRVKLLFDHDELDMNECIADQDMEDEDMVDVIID
Put plainly: EMSA; strong preference; 7 nM DNA; EMSA, 7 nM fluorescein-labeled DNA, 10 min at 37 C; buffer, salt and pH not given in the material. To be noted: protein: recombinant, tags: GST tag removed, label: 5'-fluorescein on strand 1.

B1: Fork (oligos 18, 20, 21, 22) (structured_DNA)
DNA 1: AGCTACCATGCCTGCACGAATTAAGCAATTCGTAATCATGGTCATAGCT
DNA 2: CTACAGTTCGTCAGGATTCC
DNA 3: AATTCGTGCAGGCATGGTAGCT
DNA 4: AGCTATGACCATGATTACGAATTGCTTGGAATCCTGACGAACTGTAG
For the molecule B1, the binding result with Esc2 200-456 is listed as “no binding”; with Esc2 FF173,174AA, “binds”; in the series with Esc2 1-151, “no binding”; in the series with Esc2 1-199, “binds”; in the series with Esc2 (fork 1:3 1:4 2:4, three duplex arms), “binds”.

B2: 3'-Flap (oligos 18, 21, 22) (structured_DNA)
DNA 1: AGCTACCATGCCTGCACGAATTAAGCAATTCGTAATCATGGTCATAGCT
DNA 2: AATTCGTGCAGGCATGGTAGCT
DNA 3: AGCTATGACCATGATTACGAATTGCTTGGAATCCTGACGAACTGTAG
For the molecule B2, the binding result with Esc2 (3' flap 1:2 1:3, 20 nt ss 3' flap on strand 3) is on record as “binds”.
